In PMC10366140:
pKd: −log10 of the molar value.

Tested on: apRAD51C-CTD-1 R258H (Alvinella pompejana)
Assay: fluorescence polarization
Conditions: FP: 20 mM HEPES pH 8, 80 mM NaCl, 2.5 mM ATP, 2.5 mM MgCl2, 1 mM DTT, 0.1 mg/mL BSA, 10 nM DNA, 37 C 20 min, EMSA: 20 mM Tris pH 8.0, 150 mM KCl, 4 C 15 min

Sequence: TTTTTTTTTTTTTTTTTTTT [poly-20dT]
- pKd: 4.44
